According to publication PMC3305808 (Molecular Microbiology, 2012):
Substitutions are numbered along the chain they refer to. Names and notes keep the numbering of the source.

B1: λcIDB-AaTadZ (TadZ of Aggregatibacter actinomycetemcomitans fused to the N-terminal DNA-binding domain of λ cI) (natural protein)
chain: MLLLDQETITADSARTITVVSSRDDIQGEVAQTLRTRGLENIEIVKKDFFTSSDEISFSAEDTVGVIIDITHETNIKTIVERVFSVVPQNVWCCVIGDSDSISLSQKLLDEGILYFNSHTQLSQMVEKIILGVDIPRLRDTVKIAVLSCKGGIGASLISSHIANEIVSSKKIPVLLAQGPNGSQDLDLLFDKKLSGNVIEYAPNLDIFNGGLFELTPAATEKYNFIIYDQPIYNVKKDNFIGFLENYNNFVLVVERKIGSLRLAKQFLDECERIRSTSRKPIRTFVCISDNRLEAAKLMAKNDIETLIGSSIDAIIPYVKNTNTKTVLGINLGRDGKKEINSLMLKVIGAISRSSKPKEKQSLFSSFFTKLIKQ
B2: λcIDB-AaTadZ K150A (natural protein)
chain: B1 chain with K150A
B3: λcIDB-AaTadZ S156A (natural protein)
chain: B1 chain with S156A
B4: λcIDB-AaTadZ S156T (natural protein)
chain: B1 chain with S156T
B5: λcIDB-AaTadZ A155K (natural protein)
chain: B1 chain with A155K
B6: λcIDB-AaTadZ K150R (natural protein)
chain: B1 chain with K150R

Molecular target: the molecule itself
Assay: λ cI repressor fusion dimerization assay

Protein	% repression of λpR-lacZ [%]
B1	60.1
B2	60.3
B3	57.6
B4	53.7
B5	49.7
B6	49
